This passage reports coverage % of the imaged surface results from US20100003195A1.

The target of assay [1] is KDR on KDR-transfected 293H cells (human) (UniProt P35968). The experiment in a line: scrambled-peptide microbubbles (Example 35) on KDR-transfected 293H cells, microscopy.
The target is the same in assay [2]. The experiment in a line: scrambled-peptide microbubbles (Example 36) on KDR-transfected 293H cells, microscopy.
Assay [3] has the same target. The experiment in a line: scrambled-peptide microballoons (Example 37) on KDR-transfected 293H cells, microscopy.

With “microvesicles conjugated to a scrambled control peptide”, the results for the coverage % of the imaged surface in assay [1], in assay [2] and in assay [3] were 2.1%, 2.2% and 0.1%, respectively.
